Source: article PMC9738063, “Ethylene Response Factor MaERF012 Modulates Fruit Ripening by Regulating Chlorophyll Degradation and Softening in Banana”

Molecular target: GST-MaERF012 (Musa acuminata 'Fenjiao' banana, UniProt A0A804KA32 1-188)
Assay: EMSA; LightShift Chemiluminescent EMSA Kit; buffer, salt, pH and temperature not stated
Conditions: protein: recombinant; tags: N-terminal GST (pGEX-4T-1); label: biotin 3' end; blunt

Sequence of GST-MaERF012 (A0A804KA32 entry or part of it): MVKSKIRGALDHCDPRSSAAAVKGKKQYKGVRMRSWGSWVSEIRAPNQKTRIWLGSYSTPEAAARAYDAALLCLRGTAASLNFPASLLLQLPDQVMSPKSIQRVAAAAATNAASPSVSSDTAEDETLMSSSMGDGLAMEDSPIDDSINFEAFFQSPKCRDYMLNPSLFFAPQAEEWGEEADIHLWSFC

B1: MaAMY3 probe (dsDNA)
DNA 1: CGGACTCACGCCACACCACAGCCGCCCCTGACGCAATTAGCGTCGA
DNA 2: TCGACGCTAATTGCGTCAGGGGCGGCTGTGGTGTGGCGTGAGTCCG
binding result: binds

B2: MaPL8 probe (dsDNA)
DNA 1: ATATCTGTGTGCTCTTGCGAGGCGGCTGGACTTTCCTGCACGCAAT
DNA 2: ATTGCGTGCAGGAAAGTCCAGCCGCCTCGCAAGAGCACACAGATAT
binding result: binds

B3: MaXYL23-like probe (dsDNA)
DNA 1: GGCAATCAGTCGGAGGAGGAGCCGCCCGATTTGGTGCACTATCATC
DNA 2: GATGATAGTGCACCAAATCGGGCGGCTCCTCCTCCGACTGATTGCC
binding result: binds

B4: MaEXP-A8 probe (dsDNA)
DNA 1: GTTGGTTCATAAGGTGCTCCGGCGGCATGTGCTGCAGACACGAAGT
DNA 2: ACTTCGTGTCTGCAGCACATGCCGCCGGAGCACCTTATGAACCAAC
binding result: binds

B5: MaSGR1 probe (dsDNA)
DNA 1: ATCATATTTCTGAATTAAGGTACTGGCGGCACATCGATATGGTATC
DNA 2: GATACCATATCGATGTGCCGCCAGTACCTTAATTCAGAAATATGAT
binding result: binds

B6: MaGWD1 probe (dsDNA)
DNA 1: CTAATCACATGATGGTGTGTGGCCGCCATCATTCTCTCCCAAGCAACC
DNA 2: GGTTGCTTGGGAGAGAATGATGGCGGCCACACACCATCATGTGATTAG
binding result: binds
